The chains are these.
B3: Recombinant S. cerevisiae Ess1 protein (enzyme, UniProt P22696 1-170, looked up)
chain: MPSDVASRTGLPTPWTVRYSKSKKREYFFNPETKHSQWEEPEGTNKDQLHKHLRDHPVRVRCLHILIKHKDSRRPASHRSENITISKQDATDELKTLITRLDDDSKTNSFEALAKERSDCSSYKRGGDLGWFGRGEMQPSFEDAAFQLKVGEVSDIVESGSGVHVIKRVG
notes: Ess1 peptidyl prolyl cis/trans isomerase, S. cerevisiae; also called purified Ess1 protein; Ess1 prolyl isomerase; source: Escherichia coli, purified as described (Li et al. 2005)
B5: Whi5-NLS-P peptide (peptide)
peptide: Biotin-GGSGGTP[pS]PP[pS]PPGI
notes: flexible linker; By the printed limits the phosphoserines are Ser59 and Ser62; also called phosphorylated Whi5-NLS peptide; Whi5 phospho-peptide; source: synthetic peptide (NEOBioLab), HPLC purified >95%
B6: CTD-P peptide (phosphorylated peptide corresponding to the CTD of RNAPII) (peptide)
peptide: Biotin-GGSGGSYSPT[pS]PSYS
notes: flexible linker ([Gly-Gly-Ser]2); based on the consensus heptapeptide repeat in the carboxy-terminal domain (CTD) of Rpb1, largest subunit of RNA polymerase II; The phosphoserine is Ser5 of the heptad YSPTSPS; also called phospho-CTD peptide; phosphorylated CTD peptide; source: synthetic peptide (NEOBioLab), HPLC purified >95%
B7: Whi5-NES-P peptide (peptide)
peptide: Biotin-GGSGGFL[pS]P[pS]PRLR[pS]PPT
notes: flexible linker; Whi5, S. cerevisiae, residues 152-164 (portion of the nuclear export signal); By the printed limits the phosphoserines are Ser154, Ser156 and Ser161; also called phosphorylated Whi5-NES peptide; Whi5 phospho-peptide; source: synthetic peptide (NEOBioLab), HPLC purified >95%
B9: Swi6-NLS-P peptide (peptide)
peptide: Biotin-GGSGGSRELG[pS]PLKK
notes: flexible linker ([Gly-Gly-Ser]2); By the printed limits the phosphoserine is Ser160; also called phosphorylated Swi6-NLS peptide; phospho-Swi6 peptide; source: synthetic peptide (NEOBioLab), HPLC purified >95%

Common to all, as to experiment: BLI; Octet RED, 24°; N-terminally biotinylated peptides immobilised on streptavidin biosensors; Ess1 in solution (3, 10, 30 μM); 20 mM Tris-HCl pH 8.0, 1 mg/mL BSA; no-peptide sensor subtracted; apparent dissociation constants (Kapp) from kinetic and equilibrium data, considering only the predominant faster-dissociating signal; for unphosphorylated peptides Kapp estimated from the signal at 30 μM Ess1
Holding throughout (conditions): both partners purified

Assay [1] has as its target B3.
Assay [2] has as its target B9.
Assay [3] deals with B6.
For assay [4], the target named is B5.
In assay [5] the target is B7.
For assay [6], the target named is B3. The source holds these as a separate data set.

Non-standard residues stand in square brackets, D forms with d. No end group written: not given here. *: point of attachment. Biotin = O=C1N[C@H]2[C@H](CS[C@H]2CCCCC(=O)*)N1; pS = N[C@@H](COP(=O)(O)O)C(=O)O

B1: Whi5-NES peptide (unphosphorylated) (peptide)
peptide: Biotin-GGSGGFLSPSPRLRSPPT
notes: flexible linker; Whi5, S. cerevisiae, residues 152-164 (portion of the nuclear export signal); source: synthetic peptide (NEOBioLab), HPLC purified >95%
On to B1, for which the Kd in assay [1] was over 1500 µM.

B2: Whi5-NLS peptide (unphosphorylated) (peptide)
peptide: Biotin-GGSGGTPSPPSPPGI
notes: flexible linker; source: synthetic peptide (NEOBioLab), HPLC purified >95%
With B2, in assay [1], the Kd was over 25 µM. Turning to B3, the “KappEq (equilibrium)” value was 10.1 ± 5.1 µM in assay [2], 1.65 ± 0.06 µM in assay [3], 0.48 ± 0.46 µM in assay [4] and 1.13 ± 0.18 µM in assay [5]. Besides, the “KappK (kinetic)” value in assay [2] is 7.25 ± 4.63 µM; in assay [3] it was 2.58 ± 0.65 µM; in assay [4] it was 2.87 ± 0.82 µM; in assay [5] it was 3.25 ± 0.7 µM.

B4: Swi6-NLS peptide (unphosphorylated) (peptide)
peptide: Biotin-GGSGGSRELGSPLKK
notes: flexible linker ([Gly-Gly-Ser]2); source: synthetic peptide (NEOBioLab), HPLC purified >95%
Regarding B4, the Kd in assay [1] was over 100 µM. Same read-out and setting: with B5 the figure was 1.67 µM; with B6, 2.12 µM. The same measure, in the same setting: under B7 stands 2.19 µM.

B8: CTD peptide (unphosphorylated) (peptide)
peptide: Biotin-GGSGGSYSPTSPSYS
notes: flexible linker ([Gly-Gly-Ser]2); based on the consensus heptapeptide repeat in the carboxy-terminal domain (CTD) of Rpb1, largest subunit of RNA polymerase II; also called unphosphorylated CTD peptide; unphosphorylated CTD control peptide; source: synthetic peptide (NEOBioLab), HPLC purified >95%
For B8, the Kd in assay [1] was over 300 µM.

As for B9, in assay [1], the Kd is 8.67 µM. Further, the off-rate constant (koff) in assay [6] is 0.254 s⁻¹.

These data come from publication PMC3962490, “The Yeast Ess1 Prolyl Isomerase Controls Swi6 and Whi5 Nuclear Localization” (G3: Genes|Genomes|Genetics, 2014).
